Laboratory results published in PMC1277818, “Substrate specificity analysis of protein kinase complex Dbf2-Mob1 by peptide library and proteome array screening” (BMC Biochemistry, 2005).

T1: FHHDbf2-H6Mob1TM9 (Saccharomyces cerevisiae, UniProt P22204+P40484)
T1 construct: made in house; host or cells: Hi5 insect cells (baculovirus)
T1 sequence (P22204 1-572): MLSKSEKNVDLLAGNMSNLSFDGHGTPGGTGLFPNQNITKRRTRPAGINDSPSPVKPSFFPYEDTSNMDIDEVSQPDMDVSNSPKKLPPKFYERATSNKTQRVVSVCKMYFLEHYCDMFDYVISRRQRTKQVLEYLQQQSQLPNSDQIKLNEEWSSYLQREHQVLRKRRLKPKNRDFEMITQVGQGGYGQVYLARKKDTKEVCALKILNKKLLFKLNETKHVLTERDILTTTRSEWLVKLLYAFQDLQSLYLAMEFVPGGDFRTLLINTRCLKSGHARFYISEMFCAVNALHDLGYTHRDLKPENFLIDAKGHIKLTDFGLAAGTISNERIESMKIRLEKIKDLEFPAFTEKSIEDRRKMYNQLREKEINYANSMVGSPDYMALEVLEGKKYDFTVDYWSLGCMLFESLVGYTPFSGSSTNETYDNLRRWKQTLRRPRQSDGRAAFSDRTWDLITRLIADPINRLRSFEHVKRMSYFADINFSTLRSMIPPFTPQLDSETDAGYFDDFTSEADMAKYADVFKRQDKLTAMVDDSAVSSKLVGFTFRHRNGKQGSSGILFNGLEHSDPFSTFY
T1 sequence (P40484 1-314 partner): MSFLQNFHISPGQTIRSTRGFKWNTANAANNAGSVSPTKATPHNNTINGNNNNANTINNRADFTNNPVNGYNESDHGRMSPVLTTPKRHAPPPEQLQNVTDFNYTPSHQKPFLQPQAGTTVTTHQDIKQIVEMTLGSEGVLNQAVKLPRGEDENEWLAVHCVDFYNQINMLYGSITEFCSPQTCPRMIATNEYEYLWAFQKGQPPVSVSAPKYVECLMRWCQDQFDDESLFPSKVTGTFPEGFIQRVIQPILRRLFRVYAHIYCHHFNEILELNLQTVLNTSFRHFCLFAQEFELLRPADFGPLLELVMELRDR

B1: YNL101W: GST fusion yeast protein on proteome chip (protein, UniProt P50944 1-713, looked up)
Vacuolar amino acid …: MVTNNGDGEHLGIRRNGNLRHPSNNMKIPRRAQSTVLNSNPFYSRKYSMSTLTPRDICRSVDSRVFVDMSSPNFQTLEDPHRDEIINSVRLNYLNSSKRSSVSHGNEAIPRVNPTKNSSASTIAAANVDSDDDETNLSSAGGDITHDIYKLVKAEDPKRLRRPRSMENVTPKIEHHTKLSSASGLNVPGGFRREFIVNKKRQEHQLNDSASSDFTSHESDSINQSSPSSNQDIDKVPFLTRNFLEFLYVFGHFAGESFEDDFIPDSSNMMIRGEDERSALLSRPDHMKVLPSAKGTTSTKKVFLILLKSFIGTGVLFLPNAFHNGGLFFSVSMLAFFGIYSYWCYYILVQAKSSCGVSSFGDIGLKLYGPWMRIIILFSLVITQVGFSGAYMIFTAKNLQAFLDNVFHVGVLPLSYLMVFQTIIFIPLSFIRNISKLSLPSLLANFFIMAGLVIVIIFTAKRLFFDLMGTPAMGVVYGLNADRWTLFIGTAIFAFEGIGLIIPVQDSMRNPEKFPLVLALVILTATILFISIATLGYLAYGSNVQTVILLNLPQSNIFVNLIQLFYSIAIMLSTPLQLFPAIKIIENKFFPKFTKIYVKHDDLTTRVELRPNSGKLNWKIKWLKNFIRSIIVIIVVSIAYFGSDNLDKFVSVIGSLACIPLVYIYPSMLHLRGNSLPETKGEFWRFKPMLDTILIFFGIASMLYTSYQSIFGV
modifications: GST tag
notes: GST fusion yeast protein on proteome chip
B2: YMR239C: GST fusion yeast protein on proteome chip (protein, UniProt Q02555 1-471, looked up)
Ribonuclease 3: MGSKVAGKKKTQNDNKLDNENGSQQRENINTKTLLKGNLKISNYKYLEVIQLEHAVTKLVESYNKIIELSPNLVAYNEAVNNQDRVPVQILPSLSRYQLKLAAELKTLHDLKKDAILTEITDYENEFDTEQKQPILQEISKADMEKLEKLEQVKREKREKIDVNVYENLNEKEDEEEDEGEDSYDPTKAGDIVKATKWPPKLPEIQDLAIRARVFIHKSTIKDKVYLSGSEMINAHNERLEFLGDSILNSVMTLIIYNKFPDYSEGQLSTLRMNLVSNEQIKQWSIMYNFHEKLKTNFDLKDENSNFQNGKLKLYADVFEAYIGGLMEDDPRNNLPKIRKWLRKLAKPVIEEATRNQVALEKTDKLDMNAKRQLYSLIGYASLRLHYVTVKKPTAVDPNSIVECRVGDGTVLGTGVGRNIKIAGIRAAENALRDKKMLDFYAKQRAAIPRSESVLKDPSQKNKKRKFSDTS
modifications: GST fusion
notes: as for B1
B3: YBR118W: GST fusion yeast protein on proteome chip (protein, UniProt P02994 2-458, looked up)
Elongation factor 1-alpha: GKEKSHINVVVIGHVDSGKSTTTGHLIYKCGGIDKRTIEKFEKEAAELGKGSFKYAWVLDKLKAERERGITIDIALWKFETPKYQVTVIDAPGHRDFIKNMITGTSQADCAILIIAGGVGEFEAGISKDGQTREHALLAFTLGVRQLIVAVNKMDSVKWDESRFQEIVKETSNFIKKVGYNPKTVPFVPISGWNGDNMIEATTNAPWYKGWEKETKAGVVKGKTLLEAIDAIEQPSRPTDKPLRLPLQDVYKIGGIGTVPVGRVETGVIKPGMVVTFAPAGVTTEVKSVEMHHEQLEQGVPGDNVGFNVKNVSVKEIRRGNVCGDAKNDPPKGCASFNATVIVLNHPGQISAGYSPVLDCHTAHIACRFDELLEKNDRRSGKKLEDHPKFLKSGDAALVKFVPSKPMCVEAFSEYPPLGRFAVRDMRQTVAVGVIKSVDKTEKAAKVTKAAQKAAKK
modifications: GST tag
notes: as for B1

Target: T1, FHHDbf2-H6Mob1TM9
Assay: Yeast proteome chip assay
Assay type: biochemical
Details: Table 3; GST fusion proteins on proteome chip, [γ-33P]ATP, chips in duplicate, computer analysis
Procedure: The relatively low sequence complexity of the Dbf2 phosphorylation motif diminished the power of using genome-wide bioinformatics screens to identify putative substrates. Accordingly, we carried out a proteome array screen to identify putative yeast substrates. […] After taking into account the proteins phosphorylated in the negative controls, 67 proteins were determined to be putative Dbf2-Mob1 substrates (Table 3).
Yeast proteome microarrays were prepared as previously described. Overexpressed GST-tagged yeast proteins were purified from ~4,400 yeast strains and spotted on slides. To determine the optimal amount of kinase to use for probing proteome chips, we performed trial assays as described (J. Ptacek et al., submitted). […] The full proteome array was probed with 4 μl ^FHHDbf2-^H6Mob1^TM9 in 200 μl of DKB supplemented with [γ-^33P]ATP. As a control, ^FHHDbf2(N305A)-^H6Mob1^TM9 was used to probe the proteome array. […] To control for autophosphorylated proteins, the proteome array was probed with 200 μl of DKB supplemented with [γ-^33P]ATP. Proteome chips were assayed in duplicate in each case. Data analysis was performed as described (J. Ptacek et al., submitted). Briefly, signals were analyzed by a computer algorithm designed to normalize background and identify signals as positive if 3 of 4 spots (each protein is spotted twice on each slide and each kinase or control was tested on 2 slides) were 2 standard deviations above background and the fourth spot was 1.5 standard deviations above background.

Molecule | Slide Signal (after normalization)
B1 | 2.1486
B2 | 1.593
B3 | 2.619

Same assay, conditions: Table 4, the 25 proteins with highest signal relative to protein amount; [γ-33P]ATP, chips in duplicate

Molecule | Slide Signal (after normalization)
B1 | 2.1486
B2 | 1.593
B3 | 2.619
